Measured values as given in US8440629B2, “Cyclic receptor-associated protein (RAP) peptides” (Raptor Pharmaceuticals Inc., priority 2007, dated 2013).

Legend:
Assay in all cases: Solid phase binding assay
[1] = molecular target: T1, LRP2 CR34-36 (Homo sapiens, UniProt P98164); details: highest ligand concentrations tested
T1 construct: a CR triplet from LRP2 (CR34-36); made in house; host or cells: E. coli BL21(DE3) CodonPlus-RIPL, pET30(+)a
Method: (§1) All expression constructs were sequenced to verify insert sequences and the junctions with the expression vector. Each plasmid was then used to transform BL21(DE3) CodonPlus-RIPL™ cells (Stratagene). Expression of the CR proteins was induced in logarithmic growth-phase cells grown in LB supplemented with 34 μg/mL chloramphenicol, 12.5 μg/mL tetracycline and 15 μg/mL kanamycin by addition of 2 mM IPTG, followed by reduction in incubator temperature to 32° C. and incubation for 4 hours with agitation at […]. Cells were pelleted and resuspended, at 3.5% of the initial culture volume in 10 mM Tris-HCl pH 8, 100 mM NaH2PO4, 8M Urea. Resuspended cells were then frozen in liquid nitrogen, rapidly thawed to 37° C. and sonicated for 10 seconds at an amplitude setting of 60 using a Cole-Parmer CP-130 ultrasonic processor connected to a 3 mm probe. This procedure was repeated three times to effect complete lysis of the cells. Lysates were clarified by spinning twice at 10,000×g in a Sorvall RC-5 centrifuge for 20 minutes at 15° C. Ni-NTA columns (Qiagen Superflow™, 1.5 mL packed bed) were used to purify the CR proteins. Briefly, the resin was equilibrated with two column volumes of lysis buffer. The clarified lysate was then supplemented to 20 mM with imidazole and incubated with the equilibrated Ni-NTA resin overnight at 4° C. The flow-through was discarded. Columns were washed once with one column volume of lysis buffer and then three times with one column volume of TBS pH 8 supplemented with 20 mM imidazole. CR-loaded beads were then removed from the column and CR proteins eluted by incubating at room temperature for 30 minutes with one column volume of the same buffer containing 200 mM imidazole. This step was repeated once and the eluates pooled. Eluted CR protein solutions were then supplemented to 2 M urea, 10 mM CaCl2 and 5 mM DTT. Purified, denatured CR protein solutions were transferred to 3,500 MWCO Slide-A-Lyzer™ (Pierce) cassettes and sequentially dialyzed against a 200-fold excess of 50 mM Tris-HCl pH 8.5, 10 mM CaCl2, 1 mM reduced glutathione, 0.5 mM oxidized glutathione at room temperature overnight and then against TBS supplemented with 5 mM CaCl2 at 4° C. overnight. Protein concentrations were determined by Bradford assay and purity confirmed by SDS-PAGE with Coomassie Brilliant Blue staining.
(§2) Purified, refolded CR protein (1 μg) was bound to Nunc Maxisorp™ 96-well plates in TBS pH 8 supplemented with 5 mM CaCl2 (TBSC) overnight at 4° C. Wells were washed with TBSC and then blocked with TBSC containing 2% bovine serum albumin (BSA). RAP ligands were then incubated with the immobilized receptor at a range of concentrations for 2 hours in the above blocking buffer supplemented with 0.05% Tween-20 at room temperature. Control wells contained no added ligand. As an additional control, to determine whether the absence of calcium affected binding, 10 mM EGTA was included in the incubation medium for some samples. Wells were washed with TBSTC and bound ligands detected with polyclonal anti-RAP (BP41/42, 1:1,000, BioMarin). Excess primary antibody was removed and wells washed before incubation with the secondary antibody, HRP-conjugated goat anti rabbit IgG (Bio-Rad). After washing, TMB substrate solutions (Bio-Rad) were added to detect HRP. Color development was stopped with 1N HCl. Absorption at 450 nm was measured with a microplate spectrophotometer (Molecular Devices). Data were plotted and Kd values derived by non-linear regression with the assumption of single-site binding (GraphPad Prism).

[2] = molecular target: T2, LRP2 CR3536 (Homo sapiens, UniProt P98164); details: highest ligand concentrations tested
T2 construct: VLDLR CR78, LRP2 CR3536, LRP2 CR34-36 and MAT CR23; made in house; host or cells: E. coli BL21(DE3) CodonPlus-RIPL, pET30(+)a
Method: as §1, §2

[3] = molecular target: T3, LRP6 CR12 (Homo sapiens, UniProt O75581); details: highest ligand concentrations tested
T3 construct: LRP6 CR12 and LRP6 CR23, amino acids 1247-1322 and 1323-1363; made in house; host or cells: E. coli BL21(DE3) CodonPlus-RIPL, pET30(+)a
T3 sequence (O75581 1247-1322): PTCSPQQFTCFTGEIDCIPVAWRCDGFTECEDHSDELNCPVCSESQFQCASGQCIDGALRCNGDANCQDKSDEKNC

[4] = molecular target: T4, LRP6 CR23 (Homo sapiens, UniProt O75581); details: highest ligand concentrations tested
T4 construct: the two CR pairs from LRP6 within the triplet (CR1 and 2, termed CR12, CR2 and 3, termed CR23); made in house; host or cells: E. coli BL21(DE3) CodonPlus-RIPL, pET30(+)a
T4 sequence (O75581 1286-1363 limits assumed): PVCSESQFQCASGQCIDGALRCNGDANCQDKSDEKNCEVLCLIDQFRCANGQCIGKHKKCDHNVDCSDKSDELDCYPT

[5] = molecular target: T5, MAT CR12 (Homo sapiens, UniProt Q9Y5Y6); details: separate set of experiments
T5 construct: termed MAT CR12 (ST14 CR12), amino acids 452-524; made in house; host or cells: E. coli BL21(DE3) CodonPlus-RIPL, pET30(+)a
T5 sequence (Q9Y5Y6 452-524): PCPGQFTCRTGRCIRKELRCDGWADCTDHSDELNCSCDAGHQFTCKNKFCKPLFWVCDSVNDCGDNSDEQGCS

[6] = molecular target: T6, MAT CR23 (Homo sapiens, UniProt Q9Y5Y6); details: highest ligand concentrations tested
T6 construct: made in house; host or cells: E. coli BL21(DE3) CodonPlus-RIPL, pET30(+)a
T6 sequence (Q9Y5Y6 487-566): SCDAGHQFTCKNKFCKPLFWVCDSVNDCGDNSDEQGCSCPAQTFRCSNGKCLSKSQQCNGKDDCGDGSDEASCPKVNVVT

[7] = molecular target: T7, MAT CR34 (Homo sapiens, UniProt Q9Y5Y6); details: separate set of experiments
T7 construct: MAT CR34 (ST14 CR34), amino acids 525-602; made in house; host or cells: E. coli BL21(DE3) CodonPlus-RIPL, pET30(+)a
T7 sequence (Q9Y5Y6 525-602): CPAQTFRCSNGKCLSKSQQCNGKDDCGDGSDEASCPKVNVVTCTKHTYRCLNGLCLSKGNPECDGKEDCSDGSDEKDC

[8] = molecular target: T8, VLDLR CR78 (Homo sapiens, UniProt P98155); details: highest ligand concentrations tested
T8 construct: a CR pair from VLDLR (CR78); made in house; host or cells: E. coli BL21(DE3) CodonPlus-RIPL, pET30(+)a

T1 sequence (P98164 3838-3974 limits assumed): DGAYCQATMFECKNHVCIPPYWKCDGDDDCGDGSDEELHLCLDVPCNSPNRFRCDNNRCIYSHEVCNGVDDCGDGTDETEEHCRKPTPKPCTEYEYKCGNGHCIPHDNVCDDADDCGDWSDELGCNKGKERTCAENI
T2 sequence (P98164 3880-3974 limits assumed): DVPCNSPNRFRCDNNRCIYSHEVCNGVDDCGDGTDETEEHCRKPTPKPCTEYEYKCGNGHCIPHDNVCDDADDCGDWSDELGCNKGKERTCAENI

B1: RAP d3: third domain of human RAP, amino acids 201-319 of mature RAP, bacterially expressed with hexahistidine and S-peptide tags (SEQ ID NO: 92) (protein, listed as Homo sapiens)
chain: LDRLRRVSHQGYSTEAEFEEPRVIDLWDLEQSANLTDKELEAFREELKHFEAKIEKHNHYQKQLEIAHEKLRHAESVGDGERVSRSREKHALLEGRTKELGYTVKKHLQDLSGRISRAR
modifications: hexahistidine and S-peptide tags
binding relative to that for LRP1 CR3-5 [1]: less than 5% | binding relative to that for LRP1 CR3-5 [2]: less than 5% | binding relative to that for LRP1 CR3-5 [3]: less than 5% | binding relative to that for LRP1 CR3-5 [4]: less than 5% | binding (in words) [5]: undetectable | binding relative to that for LRP1 CR3-5 [6]: less than 5% | binding (in words) [7]: undetectable | binding relative to that for LRP1 CR3-5 [8]: less than 5%
